Measurements published in the supplement of paper PMC7877785.
± gives the uncertainty stated by the source.

Assay: self-splicing fitness, log relative to wild type (ln ratio); higher = more splicing; Tetrahymena group I intron in knt gene, E. coli kanamycin selection, DiMSum; sequences stand for … in CUCUCU…GGAGGGAAAAGUUAUCAGGCAUGCACCUGGUAGCUAGUCUUUAAACCAAUAGAUUGCAUCGGUUUAAAAGGCAAGACCGUCAAAUUGCGGGAAAGGGGUCAACAGCCGUUCAGUACCAAGUCUCAGGGGAAACUUUGAGAUGGCCUUGCAAAGGGUAUGGUAAUAAGCUGACGGACAUGGUCCUAACCACGCAGCCAAGUCCUAAGUCAACAGAUCUUCUGUUGAUAUGGAUGCAGUUCACAGACUAAAUGUCGGUCGGGGAAGAUGUAUUCUUCUCAUAAGAUAUAGUCGGACCUCUCCUUAAUGGGAGCUAGCGGAUGAAGUGAUGCAACACUGGAGCCGCUGGGAACUAAUUUGUAUGCGAAAGUAUAUUGAUUAGUUUUGGAGUACUCGUGGUCG
Method in brief: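 Six replicate transformations of E. coli BL21(DE3) with a pET-22b(+) library were grown overnight at 37°C or 30°C. The library randomised all eight P1ex-region intron nucleotides, the intron lying in the knt kanamycin-resistance gene, and plates were LB agar with or without 25 μg/mL kanamycin plus 100 μg/mL carbenicillin, 50 μM IPTG and 0.2% rhamnose. Pooled colonies were amplicon-sequenced on an Illumina HiSeq 2500, and fitness is the DiMSum error-weighted combination of wild-type-normalised replicate fold changes, kanamycin versus none.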

Sequence	self-splicing fitness (ln) (37 °C)	self-splicing fitness (ln) (30 °C)
ACUGAGCAAUAUUACGCCAC	-2.31 ± 0.35	–
ACUGAGCAAUAUUACGCUCU	-2.31 ± 0.24	-3.59 ± 0.2
ACUGAGCAAUAUUACGGCGG	-1.54 ± 0.13	-1.46 ± 0.1
ACUGAGCAAUAUUACGGCUA	-1.63 ± 0.16	-1.61 ± 0.15
ACUGAGCAAUAUUACGGGUA	-1.67 ± 0.14	-3.08 ± 0.24
ACUGAGCAAUAUUACGGGUC	-3.02 ± 0.33	-4.21 ± 0.27
ACUGAGCAAUAUUACGGGUG	-1.38 ± 0.15	-2.49 ± 0.15
ACUGAGCAAUAUUACGGGUU	-3.88 ± 0.28	-2.09 ± 0.1
ACUGAGCAAUAUUACGUGCA	-2.36 ± 0.25	-2.8 ± 0.2
ACUGAGCAAUAUUACGUGUA	-2.5 ± 0.17	-3.51 ± 0.2
ACUUAGCAAUAUUACGACAG	0.0363 ± 0.1	-0.902 ± 0.08
ACUUAGCAAUAUUACGACGU	0.549 ± 0.079	-0.13 ± 0.076
ACUUAGCAAUAUUACGCGCA	-0.258 ± 0.13	-0.717 ± 0.093
ACUUAGCAAUAUUACGCGCC	-0.348 ± 0.19	-1.35 ± 0.18
ACUUAGCAAUAUUACGCGUA	-1.18 ± 0.2	-1.82 ± 0.2
ACUUAGCAAUAUUACGCGUG	-1.13 ± 0.11	-1.89 ± 0.1
ACUUAGCAAUAUUACGCUAA	-3.09 ± 0.29	-2.99 ± 0.39
ACUUAGCAAUAUUACGGAUA	-1.15 ± 0.18	-3.09 ± 0.28
ACUUAGCAAUAUUACGGAUC	-1.35 ± 0.16	-2.09 ± 0.11
ACUUAGCAAUAUUACGGCCG	-0.251 ± 0.11	-0.516 ± 0.071
ACUUAGCAAUAUUACGGGAG	-1.3 ± 0.085	-1.75 ± 0.072
ACUUAGCAAUAUUACGGUCU	0.0181 ± 0.082	-1.41 ± 0.088
ACUUAGCAAUAUUACGGUUG	-1.43 ± 0.15	-3.15 ± 0.17
ACUUAGCAAUAUUACGUCAG	-1.56 ± 0.12	-1.93 ± 0.11

Sequence	self-splicing fitness (ln) (37 °C)	self-splicing fitness (ln) (30 °C)
ACUUAGCAAUAUUACGUCCA	-0.528 ± 0.2	-1.56 ± 0.2
ACUUAGCAAUAUUACGUGAG	-0.0975 ± 0.087	-0.348 ± 0.067
ACUUAGCAAUAUUACGUGGG	-1.14 ± 0.12	-2.95 ± 0.14
ACUUAGCAAUAUUACGUUAA	-2.02 ± 0.2	-4.2 ± 0.46
ACUUAGCAAUAUUACGUUUC	-2.78 ± 0.27	-4.28 ± 0.31
AGAAAGCAAUAUUACGAAGC	-2.91 ± 0.48	-3.61 ± 0.47
AGAAAGCAAUAUUACGAAUC	-2.39 ± 0.24	-3 ± 0.26
AGAAAGCAAUAUUACGACUA	-0.42 ± 0.12	-0.244 ± 0.12
AGAAAGCAAUAUUACGACUG	-0.249 ± 0.12	-1.04 ± 0.093
AGAAAGCAAUAUUACGAGCC	-0.816 ± 0.21	-2.01 ± 0.17
AGAAAGCAAUAUUACGAGCU	0.0125 ± 0.072	-0.0239 ± 0.055
AGAAAGCAAUAUUACGAGUG	-1.96 ± 0.12	-2.27 ± 0.094
AGAAAGCAAUAUUACGAGUU	-0.668 ± 0.11	-1.58 ± 0.084
AGAAAGCAAUAUUACGAUGA	-0.785 ± 0.11	-0.734 ± 0.1
AGAAAGCAAUAUUACGAUUC	-1.07 ± 0.14	-1.03 ± 0.095
AGAAAGCAAUAUUACGCAAC	-2.02 ± 0.39	-1.96 ± 0.25
AGAAAGCAAUAUUACGCAGU	-2.07 ± 0.2	-2.5 ± 0.16
AGAAAGCAAUAUUACGCCCU	0.131 ± 0.14	0.0807 ± 0.13
AGAAAGCAAUAUUACGCUCA	1.19 ± 0.18	-0.775 ± 0.15
AGAAAGCAAUAUUACGCUCC	-1.19 ± 0.24	-1.89 ± 0.23
AGAAAGCAAUAUUACGCUGG	-2.77 ± 0.31	-3.7 ± 0.36
AGAAAGCAAUAUUACGCUUU	-3.24 ± 0.4	-3.57 ± 0.23
AGAAAGCAAUAUUACGGCGA	-1.02 ± 0.14	-0.0252 ± 0.17
AGAAAGCAAUAUUACGGGCU	-0.993 ± 0.13	-1.04 ± 0.12

Sequence	self-splicing fitness (ln) (37 °C)	self-splicing fitness (ln) (30 °C)
AGAAAGCAAUAUUACGGGGG	-2.71 ± 0.17	-3.3 ± 0.15
AGAAAGCAAUAUUACGGUGU	-1.28 ± 0.096	-2.76 ± 0.098
AGAAAGCAAUAUUACGUCGA	-0.242 ± 0.08	-0.974 ± 0.069
AGAAAGCAAUAUUACGUGCC	-0.309 ± 0.16	-0.45 ± 0.12
AGAAAGCAAUAUUACGUUCG	0.484 ± 0.092	-0.631 ± 0.07
AGAAAGCAAUAUUACGUUCU	-1.41 ± 0.14	-2.72 ± 0.15
AGAAAGCAAUAUUACGUUUG	-2.24 ± 0.21	-2.48 ± 0.14
AGACAGCAAUAUUACGAAGU	-2.26 ± 0.15	-3.47 ± 0.14
AGACAGCAAUAUUACGACAU	-0.0048 ± 0.032	-0.107 ± 0.011
AGACAGCAAUAUUACGAUCG	0.599 ± 0.11	-0.599 ± 0.072
AGACAGCAAUAUUACGCAAG	-0.553 ± 0.1	-2.89 ± 0.11
AGACAGCAAUAUUACGCACU	-0.203 ± 0.13	-0.646 ± 0.12
AGACAGCAAUAUUACGCAGA	-1.38 ± 0.2	-2.56 ± 0.27
AGACAGCAAUAUUACGCAUA	-1.23 ± 0.11	-2.73 ± 0.18
AGACAGCAAUAUUACGCCAG	-3.27 ± 0.26	-4.58 ± 0.46
AGACAGCAAUAUUACGCGCA	0.312 ± 0.13	-0.449 ± 0.084
AGACAGCAAUAUUACGCGCC	-0.637 ± 0.12	-0.399 ± 0.14
AGACAGCAAUAUUACGCUUU	-1.23 ± 0.12	-3.18 ± 0.18
AGACAGCAAUAUUACGGAUA	-2.17 ± 0.13	-2.97 ± 0.12
AGACAGCAAUAUUACGGGUC	-2.92 ± 0.31	-3.04 ± 0.18
AGACAGCAAUAUUACGUCCC	-0.529 ± 0.17	-2.45 ± 0.18
AGACAGCAAUAUUACGUCCG	-0.305 ± 0.15	-0.314 ± 0.12
AGACAGCAAUAUUACGUCGC	-1.98 ± 0.19	-2.96 ± 0.2
AGACAGCAAUAUUACGUCUU	-2.74 ± 0.18	-4.54 ± 0.25

Sequence	self-splicing fitness (ln) (37 °C)	self-splicing fitness (ln) (30 °C)
AGACAGCAAUAUUACGUUCC	-1.77 ± 0.18	-2.2 ± 0.16
AGACAGCAAUAUUACGUUCG	0.0905 ± 0.072	-0.687 ± 0.05
AGAGAGCAAUAUUACGACUU	-0.522 ± 0.15	-1.7 ± 0.15
AGAGAGCAAUAUUACGAGAU	-1.38 ± 0.27	-2.92 ± 0.37
AGAGAGCAAUAUUACGAGGG	-2.35 ± 0.42	-3.58 ± 0.39
AGAGAGCAAUAUUACGAGUG	-2.15 ± 0.34	–
AGAGAGCAAUAUUACGGAAG	-1.32 ± 0.22	-3.74 ± 0.33
AGAGAGCAAUAUUACGGCAC	-1.68 ± 0.18	–
AGAGAGCAAUAUUACGGUUU	-2.58 ± 0.25	-1.98 ± 0.19
AGAGAGCAAUAUUACGUAGA	-2.65 ± 0.34	-3.63 ± 0.25
AGAGAGCAAUAUUACGUCAG	–	-0.659 ± 0.45
AGAGAGCAAUAUUACGUGGC	-1.59 ± 0.35	-3.07 ± 0.25
AGAGAGCAAUAUUACGUUCC	-3.14 ± 0.47	-1.63 ± 0.18
AGAGAGCAAUAUUACGUUCU	-2.26 ± 0.45	-3.19 ± 0.41
AGAUAGCAAUAUUACGAAAG	-1.23 ± 0.21	-2.68 ± 0.2
AGAUAGCAAUAUUACGAACG	-0.323 ± 0.13	-1.12 ± 0.12
AGAUAGCAAUAUUACGAAGC	-1.5 ± 0.28	–
AGAUAGCAAUAUUACGAGCC	-1.76 ± 0.28	-0.476 ± 0.18
AGAUAGCAAUAUUACGAGUU	-0.588 ± 0.099	-2.21 ± 0.1
AGAUAGCAAUAUUACGAUGG	-3.07 ± 0.22	-2.2 ± 0.14
AGAUAGCAAUAUUACGAUUU	0.527 ± 0.11	-0.348 ± 0.084
AGAUAGCAAUAUUACGCAAU	-1.34 ± 0.15	-1.14 ± 0.1
AGAUAGCAAUAUUACGCAGG	-0.155 ± 0.19	-1.91 ± 0.17
AGAUAGCAAUAUUACGCCCC	-0.202 ± 0.4	-1.27 ± 0.26
